From patent publication US20240076398A1 come the findings set out here.

The target in assay [1] is human C5aR1 (complement component 5a receptor 1) (human) (UniProt P21730). Description: flow cytometry, Expi293 with transient human C5aR1, 100 nM antibody; mock 3,722.
Assay [2] has the same target. Description: flow cytometry, Expi293 with transient human C5aR1, secondary antibody alone; mock 3,052. (In flow cytometry, cells or beads pass a laser one at a time.)

human C5aR1 (complement component 5a receptor 1) (human), sequence (P21730 other isoform, or with tags, fused parts or gaps): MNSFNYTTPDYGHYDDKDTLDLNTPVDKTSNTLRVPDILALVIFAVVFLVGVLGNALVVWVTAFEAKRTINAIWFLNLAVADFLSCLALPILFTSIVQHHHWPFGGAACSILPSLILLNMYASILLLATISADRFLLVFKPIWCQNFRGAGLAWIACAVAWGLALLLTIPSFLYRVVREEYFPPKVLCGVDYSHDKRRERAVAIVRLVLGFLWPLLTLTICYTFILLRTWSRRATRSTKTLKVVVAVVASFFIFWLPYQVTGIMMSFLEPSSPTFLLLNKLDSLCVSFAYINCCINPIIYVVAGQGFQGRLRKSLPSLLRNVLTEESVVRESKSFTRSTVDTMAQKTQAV

In the case of Isotype control (Table 6) (antibody), the geometric mean fluorescent intensity in assay [1] was 6550.
On to Anti-human-APC secondary antibody alone, for which the geometric mean fluorescent intensity in assay [2] stood at 5350.
